# Legend:
# [1] = biological target: Ag43^EDL933 α-domain (α^43_EDL933), complete passenger domain with the autochaperone domain, from EHEC O157:H7 EDL933 (E. coli O157:H7 EDL933 (EHEC)); test: AUC; sedimentation velocity, 2.2 mg/mL, 25 mM HEPES, 150 mM NaCl, pH 7.0, 20 °C, 40,000 rpm, absorbance at 285 nm, c(s) analysis; monomer to dimer
# [2] = biological target: Ag43^UTI89 α-domain (α^43_UTI89), complete passenger domain with the autochaperone domain, from UPEC UTI89 (E. coli UTI89 (UPEC)); test: as above
# [3] = biological target: Ag43a α-domain (α^43a) from UPEC CFT073 (E. coli CFT073 (UPEC)); test: as above
# [4] = biological target: Ag43b α-domain (α^43b) from UPEC CFT073 (E. coli CFT073 (UPEC)); test: AUC; sedimentation velocity; α^43b sample concentrated above 30 mg/ml prior to AUC analysis (Supplementary Fig. 7); monomer to dimer
substance,measurement,setting,value
"Ag43^EDL933 α-domain (α^43_EDL933), complete passenger domain with the autochaperone domain, from EHEC O157:H7 EDL933 (domain or fragment)",stoichiometry N,[1],2
"Ag43^UTI89 α-domain (α^43_UTI89), complete passenger domain with the autochaperone domain, from UPEC UTI89 (domain or fragment)",stoichiometry N,[2],2
Ag43a α-domain (α^43a) from UPEC CFT073 (domain or fragment),stoichiometry N,[3],2
Ag43b α-domain (α^43b) from UPEC CFT073 (domain or fragment),stoichiometry N,[4],2

# — publication PMC8993888
